According to US20040120923A1:

Key:
IL-18 (human) = IL-18 (human) (UniProt Q14116); assay: cell-based or functional assay
IL-18BP (human) = IL-18BP (human) (UniProt O95998); assay: cell-based or functional assay
IL-18BP (human), sequence (O95998 31-194): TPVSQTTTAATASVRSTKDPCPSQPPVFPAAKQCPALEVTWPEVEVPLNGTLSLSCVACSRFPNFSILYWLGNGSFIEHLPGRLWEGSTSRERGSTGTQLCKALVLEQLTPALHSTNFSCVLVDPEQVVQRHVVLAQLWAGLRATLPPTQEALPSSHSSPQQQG

IL-18 (human), sequence (Q14116 37-193 limits assumed): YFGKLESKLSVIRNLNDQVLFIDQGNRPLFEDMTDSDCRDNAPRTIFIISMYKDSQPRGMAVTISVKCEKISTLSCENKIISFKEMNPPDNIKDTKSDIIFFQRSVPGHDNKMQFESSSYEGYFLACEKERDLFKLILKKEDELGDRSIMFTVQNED

activity of IL-18 (IFNγ release by NKO cells, % of IL-18 25 ng/ml plus IL-12 without IL-18BP or IL-1F7b) at 3.12 ng/ml of IL-18BP, without IL-1F7b (IL-18 (human)) [%]	activity of IL-18 (IFNγ release by NKO cells, % of IL-18 25 ng/ml plus IL-12 without IL-18BP or IL-1F7b) at 6.25 ng/ml of IL-18BP, without IL-1F7b (IL-18 (human)) [%]	activity of IL-18 (IFNγ release by NKO cells, %) at 3.12 ng/ml of IL-18BP with mature IL-1F7b 250 ng/ml (IL-18BP (human)) [%]	activity of IL-18 (IFNγ release by NKO cells, %) at 6.25 ng/ml of IL-18BP with mature IL-1F7b 250 ng/ml (IL-18BP (human)) [%]	further decrease in activity of IL-18 at 3.12 ng/ml of IL-18BP with mature IL-1F7b (IL-18BP (human)) [%]	further decrease in activity of IL-18 at 6.25 ng/ml of IL-18BP with mature IL-1F7b (IL-18BP (human)) [%]	Substance
59	76					IL-18BP (from UniProt O95998 31-194) (receptor)
		40	55	19	21	mature IL-1F7b (N-terminus E21) (from UniProt Q9NZH6 21-218) (ligand)
